The values that follow come from patent US20150315556.

Series [1] addresses T1, CCR2 rationally-designed meganuclease (I-CreI derivative).
T1 chain: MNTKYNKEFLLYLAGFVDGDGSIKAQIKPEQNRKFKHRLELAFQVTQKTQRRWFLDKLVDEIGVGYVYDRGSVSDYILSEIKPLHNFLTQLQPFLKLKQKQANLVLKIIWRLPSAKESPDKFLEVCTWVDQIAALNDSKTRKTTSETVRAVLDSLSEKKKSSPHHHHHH

Series [2] concerns the target T2, MYD2 rationally-designed meganuclease (I-CreI derivative).
T2 chain: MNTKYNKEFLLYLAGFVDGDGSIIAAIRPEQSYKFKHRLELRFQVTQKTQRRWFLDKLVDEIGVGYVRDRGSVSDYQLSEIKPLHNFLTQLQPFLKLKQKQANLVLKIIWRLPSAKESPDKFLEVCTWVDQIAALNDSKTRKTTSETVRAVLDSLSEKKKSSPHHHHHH

For series [3], the target named is T3, HSV2 rationally-designed meganuclease (I-CreI derivative).
T3 chain: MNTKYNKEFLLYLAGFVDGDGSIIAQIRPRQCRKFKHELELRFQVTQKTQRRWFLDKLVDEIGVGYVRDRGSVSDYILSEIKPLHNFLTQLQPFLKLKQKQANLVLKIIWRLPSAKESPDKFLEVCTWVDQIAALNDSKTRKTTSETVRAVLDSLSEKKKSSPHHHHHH

B1: CCR1 rationally-designed meganuclease (I-CreI derivative) (protein)
chain: MNTKYNKEFLLYLAGFVDGDGSIKAQIRPRQNYKFKHELELEFQVTQKTQRRWFLDKLVDEIGVGYVYDRGSVSDYILSEIKPLHNFLTQLQPFLKLKQKQANLVLKIIWRLPSAKESPDKFLEVCTWVDQIAALNDSKTRKTTSETVRAVLDSLSEKKKSSPHHHHHH
For the protein B1, the “cleavage of a linearized DNA substrate containing the intended non-palindromic recognition sequence by the 1:1 mixture” value in series [1] was “each rationally-designed meganuclease heterodimer cleaves its intended DNA site”.

B2: MYD1 rationally-designed meganuclease (I-CreI derivative) (protein)
chain: MNTKYNKEFLLYLAGFVDGDGSIIAQIRPRQSYKFKHELELAFQVTQKTQRRWFLDKLVDEIGVGKVRDRGSVSDYELSEIKPLHNFLTQLQPFLKLKQKQANLVLKIIWRLPSAKESPDKFLEVCTWVDQIAALNDSKTRKTTSETVRAVLDSLSEKKKSSPHHHHHH
Consider B2, for which the “cleavage of a linearized DNA substrate containing the intended non-palindromic recognition sequence by the 1:1 mixture” value in series [2] was “each rationally-designed meganuclease heterodimer cleaves its intended DNA site”.

B3: HSV1 rationally-designed meganuclease (I-CreI derivative) (protein)
chain: MNTKYNKEFLLYLAGFVDGDGSIIAQIKPRQSCKFKHELRLQFQVTQKTQRRWFLDKLVDEIGVGYVRDRGSVSDYILSEIKPLHNFLTQLQPFLKLKQKQANLVLKIIWRLPSAKESPDKFLEVCTWVDQIAALNDSKTRKTTSETVRAVLDSLSEKKKSSPHHHHHH
As to B3, in series [3], the “cleavage of a linearized DNA substrate containing the intended non-palindromic recognition sequence by the 1:1 mixture” value is given as “each rationally-designed meganuclease heterodimer cleaves its intended DNA site”.
